Experimental findings from patent publication US20030069395A1 (DYAX, published 2003) are described below.

A word on the Kd: it is the free concentration of one partner at which half of the binding sites on the other are occupied at equilibrium, for simple one-to-one binding. The low end stands for higher affinity, the high end for lower affinity.

Bridges are numbered along the chain shown (N, C = ends). Where no end group is shown, it is not given here. fluorescein = fluorescein label

First the molecules themselves.
B1: DX-1175, Ac-AGWTTCHIYDWFCSSSGTGGGK-NH2 (peptide)
peptide: Ac-AGWTTCHIYDWFCSSSGTGGGK(fluorescein)-NH2
modifications: not fully specified (bridges); printed as Ac-AGWTTCHIYDWFCSSSGTGGGK-NH2; cysteine pairing not given here
B2: DX-1173, Ac-AGKWYCAWDPLVCEIFGTGGGK-NH2 (peptide)
peptide: Ac-AGKWYCAWDPLVCEIFGTGGGK(fluorescein)-NH2
modifications: disulfide 6-13 (inferred)
B3: DX-1165, Ac-GDNDGCTDTNWSWMFDCPPLDPGGGK-NH2 (peptide)
peptide: Ac-GDNDGCTDTNWSWMFDCPPLDPGGGK(fluorescein)-NH2
modifications: disulfide 6-17 (inferred)
B4: DX-1089, Ac-GDSFCVTYIGTWETVCKRSDPGGGK-NH2 (peptide)
peptide: Ac-GDSFCVTYIGTWETVCKRSDPGGGK(fluorescein)-NH2
modifications: disulfide 5-16 (inferred)
B5: DX-1171, Ac-GSRSFCMDWPNHRDCDYSAPGGGK-NH2 (peptide)
peptide: Ac-GSRSFCMDWPNHRDCDYSAPGGGK(fluorescein)-NH2
modifications: not fully specified (bridges); printed as Ac-GSRSFCMDWPNHRDCDYSAPGGGK-NH2; cysteine pairing not given here
B6: DX-1091, Ac-GDLRSCFTYYPFTTFSCSPADPGGGK-NH2 (peptide)
peptide: Ac-GDLRSCFTYYPFTTFSCSPADPGGGK(fluorescein)-NH2
modifications: disulfide 6-17 (inferred)
B7: DX-1167, Ac-GDSPYCKIALFQHFEVCAADDPGGGK-NH2 (peptide)
peptide: Ac-GDSPYCKIALFQHFEVCAADDPGGGK(fluorescein)-NH2
modifications: disulfide 6-17 (inferred)
B8: DX-1163, Ac-GDDSMCITWPFKRPWPCANDPGGGK-NH2 (peptide)
peptide: Ac-GDDSMCITWPFKRPWPCANDPGGGK(fluorescein)-NH2
modifications: not fully specified (bridges); printed as Ac-GDDSMCITWPFKRPWPCANDPGGGK-NH2; cysteine pairing not given here
B9: DX-1093, Ac-GSLWDCWLYDCEGNAPGGGK-NH2 (peptide)
peptide: Ac-GSLWDCWLYDCEGNAPGGGK(fluorescein)-NH2
modifications: disulfide 6-11 (inferred)
B10: DX-321 of Table 9, Ac-GDRNMCKFSWIRSPAFCARADPGGGK-NH2 (peptide)
peptide: Ac-GDRNMCKFSWIRSPAFCARADPGGGK(fluorescein)-NH2
modifications: disulfide 6-17 (inferred)
B11: DX-997, Ac-GDFSLCWIVDEDGTKWCLPDPGGGK-NH2 (peptide)
peptide: Ac-GDFSLCWIVDEDGTKWCLPDPGGGK(fluorescein)-NH2
modifications: disulfide 6-17 (inferred)
B12: DX-1177, Ac-AGLEYCFYQWWGCPHAGTGGGK-NH2 (peptide)
peptide: Ac-AGLEYCFYQWWGCPHAGTGGGK(fluorescein)-NH2
modifications: not fully specified (bridges); printed as Ac-AGLEYCFYQWWGCPHAGTGGGK-NH2; cysteine pairing not given here
B13: DX-1002, Ac-GDLRDCQTTWPFTMMQCPNNDPGGGK-NH2 (peptide)
peptide: Ac-GDLRDCQTTWPFTMMQCPNNDPGGGK(fluorescein)-NH2
modifications: not fully specified (bridges); printed as Ac-GDLRDCQTTWPFTMMQCPNNDPGGGK-NH2; cysteine pairing not given here
B14: DX-1179, Ac-AGYQFCTWDPIFCGWHGTGGGK-NH2 (peptide)
peptide: Ac-AGYQFCTWDPIFCGWHGTGGGK(fluorescein)-NH2
modifications: not fully specified (bridges); printed as Ac-AGYQFCTWDPIFCGWHGTGGGK-NH2; cysteine pairing not given here
B15: phage isolate displaying VAWCTIFLCLDV (SEQ ID NO: 239) (peptide)
chain: VAWCTIFLCLDV
modifications: not fully specified (bridges); cysteine pairing not given here
notes: Whole phage in the ELISA; the constant phage residues that flank the display peptide are not spelled out for the phage construct; not shown: protein III of M13 phage; the display peptide stands at its amino terminus
B16: phage isolate displaying HVGCNNALCMQY (SEQ ID NO: 241) (peptide)
chain: HVGCNNALCMQY
modifications: not fully specified (bridges); cysteine pairing not given here
notes: Whole phage in the ELISA; not shown: protein III of M13 phage; the display peptide stands at its amino terminus
B17: phage isolate displaying RNMCKFSWIRSPAFCARADP (SEQ ID NO: 251) (peptide)
chain: RNMCKFSWIRSPAFCARADP
modifications: not fully specified (bridges); cysteine pairing not given here
notes: as for B16
B18: phage isolate displaying NHGCWHFSCIWD (SEQ ID NO: 243) (peptide)
chain: NHGCWHFSCIWD
modifications: not fully specified (bridges); cysteine pairing not given here
notes: as for B16
B19: phage isolate displaying ADFCEGKDMIDWVYCRLY (SEQ ID NO: 245) (peptide)
chain: ADFCEGKDMIDWVYCRLY
modifications: not fully specified (bridges); cysteine pairing not given here
notes: as for B16
B20: phage isolate displaying FWFCDRIAWYPQHLCEFLD (SEQ ID NO: 246) (peptide)
chain: FWFCDRIAWYPQHLCEFLD
modifications: not fully specified (bridges); cysteine pairing not given here
notes: as for B16
B21: phage isolate displaying FKICDQWFCLMP (SEQ ID NO: 240) (peptide)
chain: FKICDQWFCLMP
modifications: not fully specified (bridges); cysteine pairing not given here
notes: as for B16
B22: phage isolate displaying DWDCVTRWANRDQQCWAL (SEQ ID NO: 248) (peptide)
chain: DWDCVTRWANRDQQCWAL
modifications: not fully specified (bridges); cysteine pairing not given here
notes: as for B16
B23: phage isolate displaying DWDCVTDWANRHQHCWAL (SEQ ID NO: 249) (peptide)
chain: DWDCVTDWANRHQHCWAL
modifications: not fully specified (bridges); cysteine pairing not given here
notes: as for B16
B24: phage isolate displaying WKVCDHFFCLSP (SEQ ID NO: 242) (peptide)
chain: WKVCDHFFCLSP
modifications: not fully specified (bridges); cysteine pairing not given here
notes: as for B16
B25: phage isolate displaying FRNCEPWMLRFGCNPR (SEQ ID NO: 244) (peptide)
chain: FRNCEPWMLRFGCNPR
modifications: not fully specified (bridges); cysteine pairing not given here
notes: as for B16
B26: phage isolate displaying DWQCVKDWANRRRGCMAD (SEQ ID NO: 250) (peptide)
chain: DWQCVKDWANRRRGCMAD
modifications: not fully specified (bridges); cysteine pairing not given here
notes: as for B16

For one assay, the target named is T1, human serum albumin (HSA) (human, UniProt P02768 25-609).
T1 construct: also called caprylate-biotinylated-HSA
The assay can be described thus: fluorescence anisotropy, fluorescein-labelled peptide, PBS. The method, then:
Affinity determinations were made by first labeling polypeptides on the C-terminal end with NHS-fluorescein. Fluorescence anisotropy measurements were performed in 384-well microplates in a volume of 10 μl in binding buffer using a Tecan Polarion fluorescence polarization plate reader. The concentration of fluorescein labeled peptide was held constant (20 nM), and the concentration of HSA was varied. For pH 6.2, 7.1, and 7.4 binding conditions, a 3 mM phosphate, 0.01% Tween-20 buffer was used. For pH 9.1 binding conditions, a 3 mM sodium bicarbonate buffer, 0.01% Tween-20 nonionic detergent buffer was used. Once NaCl was added to any of these buffers, their pH was adjusted again to achieve the original pH. The binding mixtures were equilibrated for 10 minutes in the microplate at 30° C. prior to performing the measurement. The observed change in anisotropy was fit to the equation below via nonlinear regression to obtain the apparent KD. This equation assumes that the peptide and HSA form a reversible complex with 1:1 stoichiometry.
Selected HSA binding polypeptides from these additional library selections were synthesized, fluorescein-labeled as in Example 1, and tested to determine an apparent KD for HSA in PBS. The polypeptides were synthesized to include an acetylated N-terminal dipeptide and a C-terminal dipeptide corresponding to the constant flanking amino acids immediately adjacent the display peptide as expressed on phage in the respective phage display libraries. The polypeptides were also synthesized with a C-terminal -Gly-Gly-Gly-Lys (SEQ ID NO: 24). The terminal Lys residue was amidated.
A general note: Fluorescence polarisation rises when a labelled molecule tumbles more slowly, as on binding a larger partner.
As for B1, binding was put at a Kd of 30 µM. Same read-out and setting: to B2 belongs above 10 µM; to B3, above 10 µM; to B4, above 10 µM. Still for that read-out and setting: under B5 stands 165 µM; under B6, above 10 µM. The same measure, in the same setting: under B7 stands above 10 µM; under B8, 42 µM; under B9, above 10 µM.

Turning to B10, the Kd was above 10 µM. For B11, the Kd was above 10 µM. Same read-out and setting: to B12 belongs 153 µM; to B13, 4 µM; to B14, 185 µM.

The target of a further assay is T1, human serum albumin (HSA). Briefly: phage ELISA on immobilised caprylate-HSA, HRP anti-M13 antibody. The method, then:
Phage were selected as described below from a pool of three phage libraries (TN6/6, TN10/9, TN12/1). Phage were tested for ability to bind to HSA an in ELISA format using caprylate-bound HSA, which had been passively immobilized on the surface of wells of a microtiter assay plate. Binding of phage to immobilized HSA was detected by adding HRP-conjugated anti-M13 antibody. Following addition of TMB substrate, the absorbance at 620 nm was read with an automated plate reader. Phage bound to HSA is shown by diagonal striped bars; control wells (no HSA) is shown by open bars.
For analysis of caprylate-HSA as a target, Immulon 2HB plates were prepared by the addition of 340 μl/well of caprylate-HSA at 5.6 μg/ml. The plates were incubated overnight at 4° C. The HSA-coated plates were then washed robotically with PBSCT six times (BioTek 404, BioTek Instruments). To account for plate binders, empty plates were also washed. An equal volume of each phage clone isolate was added to a plate well containing 70 μl PBSCT in both the target plate and the control plate. Plates were incubated for one hour at room temperature. The plates were washed seven times with PBSCT using the BioTek 404 apparatus. A 1:10,000 dilution of Pharmacia HRP-αM13 antibody conjugate in PBSCT was added to each well, at 100 μl/well. Plates were incubated for one hour. After incubation, plates were washed six times with PBSCT using the BioTek 404 apparatus. Following the wash, 100 μl of a 1:1 solution of the two-component TMB substrate solution was added to each well, and the plates incubated for 30 minutes. The plates were then read at 620 nm with an automatic BioTek plate reader.
A general note: An ELISA detects its analyte on a solid surface through an enzyme-linked reagent.
For the molecule B15, the binding result is reported as “binds”.

Turning to B16, the binding result was “binds”.

For the molecule B17, the binding result was “binds”. Take B18: the binding result is “binds”. Still for that read-out and setting: to B19 belongs “binds”; to B20, “binds”. Still for that read-out and setting: under B21 stands “binds”; under B22, “binds”; under B23, “binds”. The same measure, in the same setting: under B24 stands “binds”; under B25, “binds”. For the molecule B26, the binding result was “binds”.
